Assay [1] has as its target T1, GDF15 hFc tag, KACTUS, GDF-HM215 (UniProt Q99988 197-308).
T1 construct: also called GDF15蛋白; not shown: hFc tag
T1 sequence (looked up): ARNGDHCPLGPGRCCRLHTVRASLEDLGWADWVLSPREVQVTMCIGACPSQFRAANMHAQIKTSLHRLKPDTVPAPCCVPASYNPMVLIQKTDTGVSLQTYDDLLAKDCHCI
The assay can be described thus: competition ELISA: GDF15 hFc coated, antibody titrated against GFRAL His tag (competitor), anti-His HRP. In general terms: ELISA stands for enzyme-linked immunosorbent assay.

The target in assay [2] is T2, Human Latent GDF-2/BMP-9 Protein, His tag, Acro, GD2-H52H3 (human, UniProt Q9UK05 23-429).
T2 construct: Bought protein, latent form; not shown: His tag
T2 sequence (looked up): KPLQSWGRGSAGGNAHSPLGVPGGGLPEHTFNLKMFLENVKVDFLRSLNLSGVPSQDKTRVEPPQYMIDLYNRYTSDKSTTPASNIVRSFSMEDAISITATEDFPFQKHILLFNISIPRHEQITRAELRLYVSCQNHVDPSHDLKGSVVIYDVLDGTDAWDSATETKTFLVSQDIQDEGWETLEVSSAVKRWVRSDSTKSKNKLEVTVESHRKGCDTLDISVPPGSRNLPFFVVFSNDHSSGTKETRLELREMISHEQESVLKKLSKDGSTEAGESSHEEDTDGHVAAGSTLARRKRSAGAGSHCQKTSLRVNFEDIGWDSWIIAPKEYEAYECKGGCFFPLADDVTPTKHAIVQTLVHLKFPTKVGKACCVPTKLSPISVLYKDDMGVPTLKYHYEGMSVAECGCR
Briefly: phage ELISA.

Assay [3] concerns the target T3, Biotinylated CD39 Protein, hFc Tag, KACTUS, CD9-HM239B (UniProt P49961 38-478, biotinylated).
T3 construct: Control antigen; also called CD39-bio-hFc; 负淘选抗原; not shown: hFc tag
T3 sequence (looked up): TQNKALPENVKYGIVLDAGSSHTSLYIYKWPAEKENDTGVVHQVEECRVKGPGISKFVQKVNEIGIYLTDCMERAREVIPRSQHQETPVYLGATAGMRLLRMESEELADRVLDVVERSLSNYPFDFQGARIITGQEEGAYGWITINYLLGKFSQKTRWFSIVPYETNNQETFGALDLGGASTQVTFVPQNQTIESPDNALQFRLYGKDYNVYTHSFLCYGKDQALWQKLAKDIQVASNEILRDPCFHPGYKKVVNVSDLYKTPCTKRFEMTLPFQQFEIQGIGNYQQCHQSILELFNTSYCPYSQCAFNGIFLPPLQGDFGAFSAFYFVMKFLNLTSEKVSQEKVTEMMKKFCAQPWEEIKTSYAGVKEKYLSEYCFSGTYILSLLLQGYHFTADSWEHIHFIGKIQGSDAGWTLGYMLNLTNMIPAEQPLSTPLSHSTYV
Briefly: phage ELISA.

For assay [4], the target named is T4, Streptavidin (SA蛋白), Pierce, 21125 (UniProt P22629 37-163, limits assumed).
T4 construct: Control antigen in the specificity ELISA; also called Strepavidin
Briefly: phage ELISA.

Assay [5] concerns the target T5, Biotinylated Human GDF15 Protein (Primary Amine Labeling), KACTUS, GDF-HM215B (human, UniProt Q99988 197-308, biotinylated (primary amine labeling)).
T5 construct: Bought protein; also called human GDF15-bio-hFc; humanGDF15-bio-hFc; not shown: hFc tag
T5 sequence (looked up): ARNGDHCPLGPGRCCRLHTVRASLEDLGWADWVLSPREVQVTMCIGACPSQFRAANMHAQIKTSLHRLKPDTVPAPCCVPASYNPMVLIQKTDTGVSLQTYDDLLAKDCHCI
The assay can be described thus: phage ELISA.

Broadly, the EC50 is the concentration that produces a half-maximal response.

T4 sequence (P22629 37-163 limits assumed): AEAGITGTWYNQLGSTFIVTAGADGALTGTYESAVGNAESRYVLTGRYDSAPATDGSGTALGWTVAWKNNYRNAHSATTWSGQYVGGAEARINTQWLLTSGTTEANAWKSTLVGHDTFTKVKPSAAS

B1: Clone 68 抗GDF15 IgG (human IgG4) (Fc fusion)
chain: QVQLVQSGAEVKKPGASVKVSCKASGYTFTNYGINWVRQAPGQGLEWMGWISAYNGYTDYAQKLQGRVSMTTDTSTSTVYMELRSLRSDDTAVYYCARDDAINGGDYWGQGTLVTVSSTSGGGGSGGGGSGGGGSELSYVLTQPPSASGTPGQRVTISCSGSSSNIGINTVNWYQQLPGTAPKLLIYINNQRPSGVPDRFSGSKSGTSASLAISGLQSEDEADYYCAAWDDSLNAYVFGSGTKVTVL
notes: also called GDF15 mAb; not shown: human IgG4 Fc
Turning to B1, the concentration giving a half-maximal response (EC50) in assay [1] was found to be 1.4 nM.

B2: Clone 68 (噬菌体单克隆) (other)
VH: QVQLVQSGAEVKKPGASVKVSCKASGYTFTNYGINWVRQAPGQGLEWMGWISAYNGYTDYAQKLQGRVSMTTDTSTSTVYMELRSLRSDDTAVYYCARDDAINGGDYWGQGTLVTVSS
VL: not shown
In the case of B2, the binding result in assay [2] is on record as “no binding”; in assay [3], “no binding”; in assay [4], “no binding”; in assay [5] it was “binds”.

The values are drawn from patent CN116444667A (SHANGHAI IASO BIOTECH CO LTD, dated 2023).
